Results on 52 sequences are retold here after the supplement of paper PMC10567573.

A short description of the series: protein stability index of a GFP-peptide fusion (GPS, HEK-293T) (PSI 1-6); higher = more stable.
The mark [1] stands for this setting: treatment: DMSO, c terminus: a fixed tail appended.
Where [2] appears, read: treatment: MLN4924 1 uM, 8 h, c terminus: a fixed tail appended.

± gives the standard deviation.
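Further: 24-mer peptide tiles fused after GFP, lentivirally expressed, FACS-sorted into six equal bins by GFP/DsRed ratio, decoded by Illumina sequencing, PSI is the read-weighted mean bin number.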

Sequence ETHRAPDLVQWTRHMEAVKAQLLE [SOAT2] gave a protein stability index under setting [1] of 4.81 ± 0.21 and a protein stability index under setting [2] of 4.53 ± 0.29.
Taken in the same sequence, the figures for TCGVCALELGSTEVLLDHLKAHAE [PLAGL1] were 2.78 ± 0.46 and 2.78 ± 0.42.
Taken in the same sequence, the figures for STSSSFPSSFPSSSSSSSSSCYPL [MAGEA10] were 3.73 ± 0.11 and 3.82 ± 0.32.
RLWSLSYTKLPSSLQSTGKCLLYC [SLC25A39]: the protein stability index by setting is: under setting [1], 2.78 ± 0.62; under setting [2], 2.73 ± 0.52.
In turn, RDHSVRVLISNHVTPFDHNIVNLL [AUP1] had a protein stability index under setting [1] of 2.1 ± 0.16 and a protein stability index under setting [2] of 2.12 ± 0.31.
Regarding PGQEKGSALEGRADTTTGSAAGPP [EHMT1], the protein stability index is, setting by setting: under setting [1], 5.39 ± 0.22; under setting [2], 5.48 ± 0.17.
Taken in the same sequence, the figures for AENSPYLNPQLVQPAKKPLLWSDP [ESRRG] were 3.9 ± 0.25 and 3.81 ± 0.23.
Turning to IPAVSISYVVYENLKITLGVQSR [SLC25A25], the protein stability index was determined as 3.19 ± 0.32 (treatment: DMSO, c terminus: native) and 3.18 ± 0.36 (treatment: MLN4924 1 uM, 8 h, c terminus: native).
As for ACRRRDALTGHLRTHSVIKEETNH [IKZF1], the protein stability index runs as follows: under setting [1], 4.01 ± 0.76; under setting [2], 3.76 ± 0.89.
As to AHNSNWYITFQSDTDAQQAFILKR [LARP4], the protein stability index under setting [1] came to 2.38 ± 0.25 and the protein stability index under setting [2] worked out at 2.4 ± 0.55.
Taken in the same sequence, the figures for LWEALCSQGAISEGAQRDRFPGRK [C22orf31] were 3.11 ± 0.12 and 3.3 ± 0.32.
Consider LRNCKTYQARKPLWFYNTSLKFFL [RHOBTB3], for which the protein stability index by setting is: under setting [1], 2.68 ± 0.55; under setting [2], 2.84 ± 0.87.
Taken in the same sequence, the figures for GHSPARAGKQRMKEKEQENERKVA [DDIT3] were 5.39 ± 0.4 and 5.43 ± 0.37.
Taken in the same sequence, the figures for YKVSAASSFFFSGVFVGVISFGQL [SLC22A15] were 3.24 ± 0.1 and 3.25 ± 1.5.
Taken in the same sequence, the figures for LTPTYLNQEDAIHFHRTLKEACDQ [CPOX] were 4.11 ± 0.25 and 4.35 ± 0.29.
Regarding IPYWVAYYLALLLSLLVMVISPVI [NSDHL], the protein stability index was 2.23 ± 0.31 under setting [1] and 2.28 ± 0.38 under setting [2].
Taken in the same sequence, the figures for LTPLELLLRQLGRDAGATPSAAGA [ANKRD9] were 2.42 ± 0.16 and 2.58 ± 0.23.
In the case of EPGPRPALQPSPSIRLPLDAPLPG [TBC1D10A], the protein stability index stood at 4.97 ± 0.28 under setting [1] and 5.06 ± 0.26 under setting [2].
With EISAYRKLLQGEEERLKLSPSPSS [LMNB1], the protein stability index under setting [1] worked out at 3.78 ± 0.37 and the protein stability index under setting [2] was 4.16 ± 0.61.
Taken in the same sequence, the figures for RFLLKETLNQLQSLQNSLECAMET [NECAB1] were 2.29 ± 0.4 and 2.31 ± 0.41.
Taken in the same sequence, the figures for FCYCAGSHKRKRSSGSFCYCHPDS [GMCL1] were 2.56 ± 0.73 and 3.19 ± 0.61.
Taken in the same sequence, the figures for TTSEEAVGGATLAQTTSEAAMEGA [HDAC6] were 5.59 ± 0.34 and 5.43 ± 0.31.
Consider IQMVNESLGYVRSQFLKLKTSVEK [CD207], for which the protein stability index under setting [1] is 3.34 ± 0.21 and the protein stability index under setting [2] was 3.29 ± 0.13.
For RNDKIKHVQNQVDEVIDVMQENIT [VAMP4], the protein stability index was determined as 4.51 ± 0.33 under setting [1] and 4.4 ± 0.98 under setting [2].
Consider AEEYDEKTSELLVRKWRVKSALGA [DPCD], for which the protein stability index reads like this: under setting [1], 3.34 ± 0.36; under setting [2], 4.04 ± 0.29.
With KHWVYVKRGGNCPAPAPLVPQDPD [ZBTB22], the protein stability index runs as follows: under setting [1], 3.32 ± 0.48; under setting [2], 3.56 ± 0.43.
Taken in the same sequence, the figures for GNLGSLEKSVTKDAEGLAARDVQK [INTS4] were 5.46 ± 0.089 and 5.42 ± 0.12.
Taken in the same sequence, the figures for VEKETQEKMTILQTYFRQNRDEVL [ATP6V1G1] were 3.61 ± 0.34 and 3.78 ± 0.26.
For the sequence SRLTPGGKAAQAGVAVGDWVLSID [PDLIM7], the protein stability index under setting [1] is 2.63 ± 0.29 and the protein stability index under setting [2] turned out to be 3.02 ± 0.61.
Taken in the same sequence, the figures for ISVNGDVITIKSESTFKNTEISFI [FABP4] were 2.75 ± 1.1 and 2.11 ± 0.16.
As for LRGLCRPLRPLLGFRESDSAKPAS [C6orf223], the protein stability index amounted to 3.31 ± 0.32 under setting [1] and 3.44 ± 0.23 under setting [2].
For MTKAGSKGGNLRDKLDGNELDLSL [LRRC59], the protein stability index turned out to be 4.63 ± 0.15 under setting [1] and 4.63 ± 0.081 under setting [2].
Taken in the same sequence, the figures for LLPEDMALRNLPPLRAAHRRFNFD [SMG5] were 3.06 ± 0.38 and 3.2 ± 0.33.
Taken in the same sequence, the figures for TVSSPIPYTPSPSSSRPISPGLSY [CCDC6] were 3.58 ± 0.1 and 3.61 ± 0.45.
For GDRLNVEVDAAPPVDLNKILEDMR [KRT36], the protein stability index turned out to be 4.24 ± 0.4 under setting [1] and 4.323 ± 0.035 under setting [2].
Regarding QSYKDLCERHEKGVLHKHQRALHK [SNX8], the protein stability index reads like this: under setting [1], 3.95 ± 0.2; under setting [2], 3.92 ± 0.37.
On to LDLFGVSMVVPLLSLHVKSLGASP [MFSD9], for which the protein stability index is, setting by setting: under setting [1], 2.81 ± 0.62; under setting [2], 3.02 ± 0.17.
Taken in the same sequence, the figures for ATVVMMTKLEERSRVKCDQYWPSR [PTPRD] were 2.42 ± 0.32 and 2.17 ± 0.38.
For YSFRKLPDTQLLKFQLNKYTGEIK [PCDHGA10], the protein stability index reads like this: under setting [1], 2.39 ± 0.37; under setting [2], 2.54 ± 0.3.
Regarding ERLVAQFPSSGRFWKLYIEAEVTI [CSTF3], the protein stability index amounted to 2.93 ± 0.61 under setting [1] and 2.71 ± 0.38 under setting [2].
In the case of LREENKALREENRMLSKENKILQV [CBY2], the protein stability index under setting [1] was 4.75 ± 0.12 and the protein stability index under setting [2] was 4.69 ± 0.15.
In the case of FFLFIGVILFSSAVYFAEAEEAES [KCNA1], the protein stability index was found to be 2.81 ± 0.18 under setting [1] and 2.78 ± 0.34 under setting [2].
Taken in the same sequence, the figures for KLPRKVLQHVSEPQAHQESTRGAA [SPACA9] were 4.59 ± 0.13 and 4.76 ± 0.17.
As to SVIEPVQESSFRSRKIAVEDENDL [MIA2], the protein stability index came to 5.05 ± 0.49 under setting [1] and 5.21 ± 0.49 under setting [2].
Taken in the same sequence, the figures for DSAQVARLWGIRKNRPAMNYDKLS [SPDEF] were 3.24 ± 0.22 and 3.35 ± 0.23.
Consider ISGALLQIKTLLALSCHEQEMVVS [SLC2A12], for which the protein stability index runs as follows: under setting [1], 2.91 ± 0.5; under setting [2], 2.42 ± 0.48.
Taken in the same sequence, the figures for ETLSITNCRLSEGDVMHLSQSPSV [PRAME] were 3.2 ± 0.66 and 3.22 ± 0.77.
In the case of DSIKTEVSGCPEDLTVGRAPTADD [NOL4L], the protein stability index is, setting by setting: under setting [1], 5.63 ± 0.34; under setting [2], 5.68 ± 0.15.
Taken in the same sequence, the figures for CLFSLINGDDMFVTFAAMQAQQGR [MCOLN1] were 2.97 ± 0.47 and 2.74 ± 0.66.
With TLYRPEEGYCQAQAPIAAVLLMHM [TBC1D10A], the protein stability index was 2.52 ± 0.42 under setting [1] and 2.43 ± 0.45 under setting [2].
For the sequence HNTTEAPGPHSAKQDSYEQGDSSQ [ZC2HC1C], the protein stability index is 5.45 ± 0.29 under setting [1] and 5.46 ± 0.32 under setting [2].
For the sequence KERILLVTDKTLLICKYDFIMLSC [TPRG1], the protein stability index came to 3.06 ± 0.42 under setting [1] and 2.61 ± 0.31 under setting [2].
